Assays:
melanoma cell lines = assay: Apoptosis by flow cytometry using 7-AAD and annexin-V; assay type: cell-based; details: pan caspase inhibitor with IFN-gamma
Experimental: (§1) The methodology of the study was as follows. Autologous and model melanoma tumor cell lines were incubated with 1000 IU/mL of IFN-gamma for 72 hours prior to assaying for autophagy, apoptosis and MHC class II expression. Autophagy was detected by immunobloting with antibodies against LC3 II and by flow cytometry with Enzo's CytoID® Autophagy Detection Kit. Apoptosis and MHC class II induction were assayed by flow cytometry using 7-AAD and annexin-V staining and antibodies against MHC class II, respectively.
Analysis of tumor cell death and changes in major histocompatibility class II expression in response to IFN-gamma were conducted by use of antibodies directed against MHC class II, annexin-V and 7-amino-actinomycin D (7-AAD) and acquired on a Beckton-Dickenson FACS Calibur® flow cytometer.
What was investigated was the induction of autophagy, apoptosis and MHC class II molecules after IFN-gamma treatment of melanoma tumor cells in vitro. Autologous and model melanoma tumor cell lines were incubated with 1000 IU/mL of IFN-gamma for 72 hours prior to assaying for autophagy, apoptosis and MHC class II expression. Autophagy was detected by immunobloting with antibodies against LC3 II and by flow cytometry with Enzo's CytoID Autophagy Detection Kit. […]

SK-5-Mel cells [1] = assay: Autophagy by flow cytometry with Enzo Cyto-ID Autophagy Detection Dye; assay type: cell-based; details: for effect on autophagy in IFN-gamma treated cells: z-VAD 20 uM with 1000 IU/mL IFN-gamma, 72 hours
Experimental: FIGS. 6A and 6B reveal apoptosis and autophagy induced in response to interferon-gamma. SK-5-Mel cells were incubated with 1000 IU/mL of IFN-gamma for 72 hours after which non-adherent and adherent populations were collected and assayed for apoptosis and autophagy by flow cytometry using 7-AAD and Annexin-V (FIG. 6A). Enzo Cyto-ID Autophagy Detection Dye was used to measure autophagy by flow cytometry by measuring the mean intensity peak shift of dye provided by the manufacturer (FIG. […]). Fold changes in the peak shift in comparison to 5% FBS/RPMI are shown in FIG. 6C with serum-free as positive control for the induction of autophagy.
SK-5-Mel cells were treated with 1000 IU/mL of IFN-gamma in the presence of 20 uM of the pan-caspase inhibitor z-VAD or its control compound, z-FA for 72 hours. The cells were harvested and assayed for autophagy by flow cytometry as in FIG. 6C.
as §1
(§2) The commercially available melanoma cell lines A375, SK-Mel-5 and SK-Mel-28 were purchased from American Type Culture Collection (Catalogue numbers: CRL-1619, HTB-70, and HTB-72). A375, SK-Mel-5, and SK-Mel-28 were maintained in 5% fetal bovine serum in RPMI-1640 (Invitrogen, catalogue number 11875-085). […]
(§3) What was investigated was the induction of autophagy, apoptosis and MHC class II molecules after IFN-gamma treatment of melanoma tumor cells in vitro. […] Autophagy was detected by immunobloting with antibodies against LC3 II and by flow cytometry with Enzo's CytoID Autophagy Detection Kit. […]

[2] = system: melanoma cell lines used in patient-specific dendritic cell therapy; assay: Immunohistochemistry of tumor associated antigens in melanoma lines with or without IFN-gamma; assay type: cell-based, human; details: 1000 IU/mL IFN-gamma, 72 hours, N=27 samples
Experimental: Expression of a panel antigens by melanoma lines were determined using immunocytochemical procedure. Ceils were cultured in 8-chamber culture slides (Thermo Fisher, Rochester, N.Y.) in the presence or absence of 1000 IU/mL IFN-gamma. After 72 hours, the cells were washed 3 times with 1× Phosphate Buffered Saline (PBS) and fixed in cold acetone. After blocking endogenous peroxidase, cells were incubated with appropriate primary antibodies against the antigens listed. Immunohistochemistry was performed using biotinylated antimouse or rabbit immunoglobulins. Super Sensitive enzyme-conjugated streptavidin labeling and horse radish peroxidase chromogen, and substrate kits (Biogenex, San Ramon, Calif.). The reactivity of the following anti-human polyclonal or monoclonal antibodies was investigated with isotype matched control antibody: S-100 and HMB-45 (Biogenex, San Ramon, Calif.), Mel-2, Mel-5, Mart-1 (Signet, Dedham, Mass.), Tyrosinase and Mage-1 (Thermo Scientific, Fremont, Calif.), Melan-A, HLA-class I and HLA-class II (Dako Denmark).
Table I: Change in the expression level of common tumor associated antigens in response to interferon-gamma in melanoma cell lines used patient-specific cell based dendritic cell therapy.

[3] = system: autologous melanoma cell lines; assay: Immunoblot of lysates from melanoma cells incubated with or without IFN-gamma; assay type: cell-based, human; details: IFN-gamma treated vs untreated
Experimental: (§4) FIGS. 2A-D show characterization of IFN-gamma treated autologous tumor cells used for loading dendritic cells. Autologous melanoma tumor cells were treated with or without 1000 IU/mL IFN-gamma for 72 hours in 15% FBS/ECS in RPMI, harvested and irradiated with 100 Gy and cryopreserved. Cells were then thawed in AIMV and a sample taken for flow cytometry and for preparation of cell lysates for immunoblotting prior to antigen loading of DCs. An example of four separate autologous melanoma cell lines is shown (FIG. 2A, FIG. 2B and FIG. 2C). Induction major histocompatibility complexes by IFN-gamma treatment of autologous tumor cells (FIG. 2D). Tumor cells were harvested after being treated with or without 1000 IU/mL IFN-gamma for 72 hours and then assayed for MHC class I and class II. Control isotype antibodies were used to identify positive populations. Dark data points indicate median mean fluorescent plus/minus 95% confidence interval, N=65.
Cytoplasmic cell lysates were prepared with Mammalian Protein Extraction Reagent (Thermo Scientific, Rockford, Ill.) plus protease inhibitor cocktail (Roche, Indianapolis, Ind.) at 10,000 cells/uL on ice. Approximately 25 uLs/lane of cell lysates were separated on 12.5% tris-glycine gels, transferred to PVDF membrane and probed with antibodies against the following: calreticulin (MBL, Woburn, Mass.), Hsp-60, Hsp-70, Hsp-90 (R&D Systems, Minneapolis, Minn.), HMBG-1 (Cell Signaling, Danvers, Mass.), ICAM-1 (Santa Cruz Biotech, Santa Cruz, Calif.), Mel-4, Mart-1 (Signet, Emeryville, Calif.), tyrosinase (Upstate, Lake Placid, N.Y.) and GADPH (Calbiochem, Darmstadt, Germany).
Lysates from cells that were incubated in the presence or absence of IFN-gamma were subjected to immunoblotting for a variety of molecules that may be important mediators of immunity (FIG. 1B). In the setting of melanoma cells treated with IFN-gamma, heat shock proteins appear to be differentially regulated but remain largely present in the cell preparations, especially in the case of hsp-70.

MHC class II = assay: Flow cytometry for MHC class II on IFN-gamma treated autologous tumor cells; assay type: cell-based, human
Experimental: as §4, with “N=65. […]” for “N=65.”

melanoma tumor cells = assay: Sensitivity of IFN-gamma treated melanoma tumor cells to cytotoxic T lymphocyte activity; assay type: cell-based
SK-5-Mel cells [4] = assay: MHC class II (HLA-DR) expression by flow cytometry with autophagy inhibitor 3-MA; assay type: cell-based; details: 1000 IU/mL IFN-gamma 72 hours; 3-MA 10 uM where present
Experimental: The cells were then harvested and assayed for apoptosis and MHC class II (HLA-DR) expression by flow cytometry.
as §1, §2, §3

MHC class I = assay: Flow cytometry for MHC class I on IFN-gamma treated autologous tumor cells; assay type: cell-based, human; details: 1000 IU/mL IFN-gamma 72 hours, N=65, p=2.8×10^−8
Experimental: as §4, with “N=65. […]” for “N=65.”

carbobenzoxy-valyl-alanyl-aspartyl-[O-methyl]-fluoromethylketone [Z-VAD]
effect on apoptosis in IFN-gamma treated cells (melanoma cell lines): prevents apoptosis | effect on autophagy in IFN-gamma treated cells (SK-5-Mel cells [1]): does not perturb autophagy | effect on autophagy in IFN-gamma treated cells (SK-5-Mel cells [1]; listed as z-VAD): did not affect

B1: interferon-gamma (protein, UniProt P01579 24-161, looked up)
Interferon gamma: QDPYVKEAENLKKYFNAGHSDVADNGTLFLGILKNWKEESDRKIMQSQIVSFYFKLFKNFKDDQSIQKSVETIKEDMNVKFFNSNKKKRDDFEKLTNYSVTDLNVQRKAIHELIQVMAELSPAAKTGKRKRSQMLFRG
notes: interferon-gamma (InterMune), type II interferon, used at 1000 IU/mL for 72 hours on tumor cells
Change after IFN-gamma treatment: None ([2]; HMB-45): 54.5% | Change after IFN-gamma treatment: Down ([2]; MAGE-1): 81.5% | Change after IFN-gamma treatment: None ([2]; MAGE-1): 38.5% | Change after IFN-gamma treatment: Down ([2]; MART-1): 85.2% | Change after IFN-gamma treatment: None ([2]; MART-1): 14.8% | Change after IFN-gamma treatment: Down ([2]; Mel-2): 53.8% | Change after IFN-gamma treatment: None ([2]; Mel-2): 48.2% | Change after IFN-gamma treatment: Down ([2]; Mel-5): 27.3% | Change after IFN-gamma treatment: None ([2]; Mel-5): 72.7% | Change after IFN-gamma treatment: Down ([2]; Melan-A): 70.8% | Change after IFN-gamma treatment: None ([2]; Melan-A): 29.2% | Change after IFN-gamma treatment: Down ([2]; S-100): 57.1% | Change after IFN-gamma treatment: None ([2]; S-100): 42.9% | Change after IFN-gamma treatment: Down ([2]; Tyrosinase): 80.0% | Change after IFN-gamma treatment: None ([2]; Tyrosinase): 40.0% | ICAM-1 expression [3]: significantly up-regulated | calreticulin and high-mobility group box-1 protein expression [3]: up-regulated in some cases | common melanoma antigens (mel-4, Mart-1 and tyrosinase) expression [3]: down regulated | MHC class II mean fluorescence intensity, median induction (95% C.I.) (MHC class II; 1000 IU/mL IFN-gamma 72 hours, N=65, p=0.039): 4.23±2.66 | cases with MHC class II induction greater than two fold (MHC class II; in response to IFN-gamma treatment): 70% | sensitivity to cytotoxic T lymphocyte (CTL) activity (melanoma tumor cells): more sensitive | MHC class II positive cells (SK-5-Mel cells [4]): 39.4% | autophagy, fold change (SK-5-Mel cells [1]; 1000 IU/mL IFN-gamma 72 hours, z-VAD 20 uM where present, peak shift vs 5% FBS/RPMI): 2.75±0.15 fold change | MHC class I median fold induction (95% C.I.) (MHC class I): 2.91±1.13 fold
